Data on four molecules can be found in US20230227520A1 (MAX PLANCK GESELLSCHAFT ZUR F RDERUNG DER WISSENSCHAFTEN E V, published 2023).

The target in experiment [1] is G-CSFR on NFS-60 cells (murine myeloblastic cell line) (mouse) (UniProt P40223). As to the kind of experiment: cell-based or functional assay.
The target of experiment [2] is T1, G-CSFR on NFS-60 cells (murine myeloblastic cell line) (mouse, UniProt P40223 26-837).
T1 sequence (looked up): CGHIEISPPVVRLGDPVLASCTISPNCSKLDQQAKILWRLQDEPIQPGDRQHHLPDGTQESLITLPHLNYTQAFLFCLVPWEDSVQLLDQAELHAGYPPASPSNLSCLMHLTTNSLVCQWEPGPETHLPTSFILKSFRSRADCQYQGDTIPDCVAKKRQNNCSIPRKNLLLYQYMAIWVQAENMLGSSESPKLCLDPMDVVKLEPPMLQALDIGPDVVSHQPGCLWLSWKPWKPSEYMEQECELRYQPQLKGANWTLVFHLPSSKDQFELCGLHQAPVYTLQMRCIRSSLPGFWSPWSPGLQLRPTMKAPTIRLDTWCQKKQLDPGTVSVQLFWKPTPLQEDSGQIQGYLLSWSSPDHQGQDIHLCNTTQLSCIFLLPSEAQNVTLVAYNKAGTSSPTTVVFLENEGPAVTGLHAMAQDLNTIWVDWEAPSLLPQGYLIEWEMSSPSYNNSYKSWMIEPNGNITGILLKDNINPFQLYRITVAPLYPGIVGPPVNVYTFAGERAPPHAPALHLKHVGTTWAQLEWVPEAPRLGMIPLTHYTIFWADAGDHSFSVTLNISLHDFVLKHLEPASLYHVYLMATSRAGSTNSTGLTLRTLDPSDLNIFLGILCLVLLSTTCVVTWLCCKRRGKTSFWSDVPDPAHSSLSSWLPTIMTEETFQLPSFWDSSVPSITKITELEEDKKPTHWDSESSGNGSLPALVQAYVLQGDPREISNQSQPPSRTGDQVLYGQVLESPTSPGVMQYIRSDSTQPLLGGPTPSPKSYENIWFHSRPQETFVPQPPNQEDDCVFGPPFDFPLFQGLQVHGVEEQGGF
Kind of experiment: cell-based or functional assay.

In experiment [3] the target is T2, G-CSF Receptor (G-CSFR) (R&D systems 381-GR-050/CF), recombinant human (human, UniProt Q99062 25-627, limits assumed).
T2 construct: Bought protein, amine-coupled to a CM5 chip; also called rhG-CSFR; human G-CSF receptor
T2 sequence (looked up): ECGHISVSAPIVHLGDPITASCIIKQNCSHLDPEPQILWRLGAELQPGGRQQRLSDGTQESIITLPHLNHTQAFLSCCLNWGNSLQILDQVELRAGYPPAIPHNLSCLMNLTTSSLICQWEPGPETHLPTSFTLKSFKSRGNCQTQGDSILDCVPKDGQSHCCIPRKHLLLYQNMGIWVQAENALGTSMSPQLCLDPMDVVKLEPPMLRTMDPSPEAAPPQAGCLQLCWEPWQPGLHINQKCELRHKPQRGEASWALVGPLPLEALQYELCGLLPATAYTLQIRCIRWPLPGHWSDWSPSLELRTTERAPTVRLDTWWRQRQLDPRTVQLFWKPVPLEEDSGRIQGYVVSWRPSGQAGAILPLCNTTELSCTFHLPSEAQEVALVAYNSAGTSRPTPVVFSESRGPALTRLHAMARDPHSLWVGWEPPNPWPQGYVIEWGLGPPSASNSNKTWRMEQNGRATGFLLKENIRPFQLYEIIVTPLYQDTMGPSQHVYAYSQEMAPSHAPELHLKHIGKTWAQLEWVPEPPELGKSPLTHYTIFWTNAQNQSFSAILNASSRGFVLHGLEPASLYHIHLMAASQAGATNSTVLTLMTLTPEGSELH
Kind of experiment: SPR, Biacore X100, G-CSFR amine-coupled on CM5, 2nd order kinetics model. As to the method: (§1) Single-cycle kinetics experiments were performed on a Biacore X100 system (GE Healthcare Life Sciences). G-CSF Receptor (G-CSFR) (R&D systems 381-GR-050/CF) was diluted to 50 μg/ml in 10 mM acetate buffer pH 5.0 and immobilized on the surface of a CM5 sensor chip (GE Healthcare 29149604) using standard amine coupling chemistry. The designs and rhG-CSF (USP RS Filgrastim, Sigma-Aldrich 1270435) were diluted in running buffer (10 mM HEPES, 150 mM NaCl, 3.4 mM EDTA, 0.005% v/v Tween-20). Analyses were conducted at 25° C. at a flow rate of 30 μl/min. Five sequential 10-fold increasing concentrations of the sample solution (for the designs from 0.5 nM to 50 μM, and for rhG-CSF from 0.05 to 500 nM) were injected over the functionalized sensor chip surface for 180 s, followed by a 180 s dissociation with running buffer. At the end of each run, the sensor surface was regenerated with a 240 s injection of 10 mM glycine-HCl pH 2.0. Each experiment was performed two times for rhG-CSF, Boskar3, Boskar4, diSohair2, Moevan, and Moevan_t2. Association rate (ka), dissociation rate (kd), and equilibrium dissociation (Kd) constants were initially obtained by global fitting of the experimental reference-subtracted data to a 1:1 interaction model using the Biacore X100 evaluation software (v.2.0.1). To evaluate if a kinetics model that depends on double the analyte stoichiometry improves the goodness of fit to the data, the following rate integral was used: […]

In experiment [4] the target is T2, G-CSF Receptor (G-CSFR) (R&D systems …). Kind of experiment: SPR, Biacore X100, G-CSFR amine-coupled on CM5, 2nd order kinetics model, second run. As to the method: (§2) To obtain a more detailed picture on the nature of the binding, the inventors fitted the highest concentration sensorgram curves using higher order kinetics models. […] While this higher-order interaction model better explains the data than a 1:1 binding model, a clear deviation remained for rhG-CSF sensorgrams.
(§3) Single-cycle kinetics experiments were performed on a Biacore X100 system (GE Healthcare Life Sciences). G-CSF Receptor (G-CSFR) (R&D systems 381-GR-050/CF) was diluted to 50 μg/ml in 10 mM acetate buffer pH 5.0 and immobilized on the surface of a CM5 sensor chip (GE Healthcare 29149604) using standard amine coupling chemistry. The designs and rhG-CSF (USP RS Filgrastim, Sigma-Aldrich 1270435) were diluted in running buffer (10 mM HEPES, 150 mM NaCl, 3.4 mM EDTA, 0.005% v/v Tween-20). Analyses were conducted at 25° C. at a flow rate of 30 μl/min. Five sequential 10-fold increasing concentrations of the sample solution (for the designs from 0.5 nM to 50 μM, and for rhG-CSF from 0.05 to 500 nM) were injected over the functionalized sensor chip surface for 180 s, followed by a 180 s dissociation with running buffer. At the end of each run, the sensor surface was regenerated with a 240 s injection of 10 mM glycine-HCl pH 2.0. Each experiment was performed two times for rhG-CSF, Boskar3, Boskar4, diSohair2, Moevan, and Moevan_t2. Association rate (ka), dissociation rate (kd), and equilibrium dissociation (Kd) constants were initially obtained by global fitting of the experimental reference-subtracted data to a 1:1 interaction model using the Biacore X100 evaluation software (v.2.0.1).

Experiment [5] shares this target. As to the kind of experiment: SPR, Biacore X100 single-cycle kinetics, G-CSFR amine-coupled on CM5, 1:1 binding model. As to the method:
as §1

Experiment [6] shares this target. As to the kind of experiment: SPR, Biacore X100 single-cycle kinetics, G-CSFR amine-coupled on CM5, 1:1 binding model, second run. The procedure: as §1
Experiment [7] shares this target. Kind of experiment: SPR, 1:1 binding, value for the two runs together as told in the text; 1:1 binding, injection dilution series. The procedure: as §2
as §3, with “Association rate (ka), dissociation rate (kd), and equilibrium dissociation (Kd) constants were initially obtained by global fitting of the experimental reference-subtracted data to a 1:1 interaction model using the Biacore X100 evaluation software (v.2.0.1).” left out

Experiment [8] shares this target. As to the kind of experiment: SPR, second-order reaction model, value as told in the text; second-order reaction model, highest concentration sensorgram. The procedure: as §2, §3
Experiment [9] has the same target. As to the kind of experiment: SPR, Biacore X100 single-cycle kinetics, G-CSFR amine-coupled on CM5, 1:1 binding model. The procedure: To test whether the grafted epitope residues mediate binding of the designs to the G-CSF receptor, the inventors also performed SPR measurements for the Moevan and diSohair2 initial design templates (Moevan_control and diSohair_control, respectively), and no binding was observed (FIG. 20C,F).
as §1
This is another data set of the same source.

The target is the same in experiment [10]. As to the kind of experiment: SPR (Biacore), G-CSFR immobilised on the chip, Moevan 2 nM - 32 nM as analyte, five traces with binding model fit [panel D].

“csf_2d9q|WILD_TYPE G-CSF (from UniProt P09919 37-204) (ligand)”: the NFS-60 EC50 (ng/mL), proliferation of NFS-60 cells in [1] stood at 0.055 ng/mL.

B1: Boskar_3 (designed binder)
chain: AALAAVLAEIYKGLAEYQARLQSLEGISPELGPALDALRLDVADFATTIAQAMEENKGPLPQSFLLKALEQIRKIQADAAALREKLAATYPSSQRAAAAVEIAAQLEAFLEKAYEILRHLAAA
Turning to B1, in experiment [2], the “NFS-60 EC50 (ng/mL), proliferation of NFS-60 cells” value (“NFS-60 EC50 (ng/mL), proliferation” for short) is 768 ng/mL. Also, the Kd was 6000 nM in experiment [3]; 2600 nM in experiment [4]; 12 nM in [5]; 16 nM in [6]; 14 nM in experiment [7]; 4400 nM in experiment [8]. Also, the koff in [3] was 0.0047 s⁻¹; in [4] it was 0.0058 s⁻¹; in experiment [5] it was 0.0015 s⁻¹; in [6], 0.0019 s⁻¹. Also, the kon in experiment [3] came out at 780 M⁻¹ s⁻¹; in experiment [4], 2200 M⁻¹ s⁻¹; in experiment [5], 130000 M⁻¹ s⁻¹; in [6], 120000 M⁻¹ s⁻¹.

B2: Boskar_4 (designed binder)
chain: AALAAALAEIYKGLAEYQARLKSLEGISPELGPALDALRLDMADFATTMAQAMEEGLDSLPQSFLLKALEQIRKIQADAAALREKLAATYKGNDRAAAAVEIAAQLEAFLEKAYQILRHLAAA
B2: in [2], the “NFS-60 EC50 (ng/mL), proliferation” value stood at 27 ng/mL. The Kd in experiment [3] amounted to 6400 nM; in experiment [4], 5800 nM; in experiment [5], 8.5 nM; in experiment [6] it was 1.7 nM; in experiment [7], 5.1 nM; in [8] it was 6100 nM. The koff in [3] worked out at 0.0095 s⁻¹; in experiment [4], 0.008 s⁻¹; in [5], 0.0045 s⁻¹; in experiment [6], 0.0015 s⁻¹. Also, the kon was determined as 1500 M⁻¹ s⁻¹ in [3], 1400 M⁻¹ s⁻¹ in experiment [4], 520000 M⁻¹ s⁻¹ in experiment [5] and 890000 M⁻¹ s⁻¹ in [6].

B3: Moevan (designed binder)
chain: MEAAAAARDESAYLKLQEQMRKIDADAAALSETRTIEELDTFKLDVADFVTTVVQLAEELEHRFGRNRRGRTEIYKIVKEVDRKLLDLTDAVLAKEKKGEDILNMVAEIKALLINIYK
notes: also called Movean
Regarding B3, the “NFS-60 EC50 (ng/mL), proliferation” value in experiment [2] was determined as 356 ng/mL. In [9], the Kd is 21 nM, the koff came to 0.0059 s⁻¹ and the kon is 290000 M⁻¹ s⁻¹. In experiment [10], the Kd was found to be 21.7 nM, the koff was 0.00599 s⁻¹ and the kon stood at 275000 M⁻¹ s⁻¹.
